In a protein production outcome set (Wang et al. 2014) one finds protein production data, which are given here for 20 sequences.
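Also: failed if final PepcDB status was selected cloned or expressed and not failed if soluble or beyond.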

The nature of this data set: label from the status in PepcDB records.
On to “AADHVKGDGKLTSKKISVADYNEIKVDGVIDFNYEQSDDPSTVEVTVDQNLHPYVNIEVKDRVLTIAFKGAKVDHFTKFIVKTNSKWLAAAKVSGNANFMVNSPLTGDETVIKANANSLVQLKETVTVGKLDLNVSGSANMVVNHLEADKIECDIDGSGSITIKKGNAKEGDYSIVSSGDIHAFGLAVPQLSCKVTGNGLAEVHATDNLKANVVGKGNIRYKGPTAVQQRIIGKGTVEEVKE”, for which the protein production result is given as “not failed”.
Turning to “ADGILGVDKLGHFIFANESATKITGYSEEQILSSDLISLFAGDNKENLTFEDTEVYKAIQSKEVIRISNEYVLMSGARELPLEYSISPVEDDE”, the protein production result was “failed”.
“ADNNKWKPLFGKNLENANYNPEVWSETDGVLGAVKDESIWTKDEYENFELDLDFKTDVGTNSGVVVYCTDTKDWIPNSVEIQIADDHCEKWGNGKPYEKCGAIYGHLGAVQDKVVKKPGEWNHMRIKCAGQHIMVILNGKKVTEMDMSKWTSGTKNPDGSDIPSWLPKPFAELPTKGFIGLQGKHGDSLIWFRNIKIRSL”: the protein production entry was “not failed”.
For “ADPFASITHLVDSAMVNKTDSIDREKTSDEPKPIEADESFDDFIYNFASDDALQRQRVVFPLPYYNGERASKIDRKYWKHDDLFAKQSYYTLLFDREEDMDLVGDTSLTSVQVEWIFVKKRMVKKYYFERIKGAWMLEAINLRPIEENENEDFVEFFGHFATDSIFQSRRIRQPLVFVTTDPDDDFSILETTLDLNQWFAFKPALPADKLSNINYGQQNDDNASHKILALKGIGNGFSNILYFQRKDSGWELYKFEDTSI”, the protein production entry is “not failed”.
To “ADVSATVSDMGSLLTAVTLAGVLDYYSVGTKVIKAPKKMVEQQILMTLQTMASLVESSGVDGLVKALNPELLSKAASSMHLLDQQKDLDAALEILTHL” belongs “not failed”; to “AENNMVRLSRIIIDPERLEEYNAYLKEEIEVSMRLEPGVLVLYAVAEKERPNHVTILEIYADEAAYKSHIATPHFKKYKEGTLDMVQMLELIDATPLIPGLKMK”, “not failed”; to “AGHRGQCVGRHREVVAIDNSKATNPHAADSALAGFSSVVWVAGGQLKGAEIDELIVRHAGRIKAVALLGVDRDVIEDSVRTHIPGIPVLSVSETDPRRAMDEAVAWSVSQAEAGDAIVLAPAAASLDMYTGMGQRGDMFATAIAQHLHD”, “failed”.
In the case of “AGNETVTEGFKEGQVGSSAMPHKMNARSCERVGGLQVILRGYLTMVADLSGQQWNEGDVFCSVIRRVALPDAFFALDGMYETFLTVLAEFGAFPAMIDRELERYLPFLATTRILMAAVRVGVGRETAHEVIKENAVAVALNMRENGGEQDLIDRLAADERLPMTREQLDEALADRHAFIGAAESQVARVVDRVNDLVRRYPAAAQYTPGDIL” it was “failed”; in that of “AGQVVHTETTEVVLTADPVTGFGIQLQGSVFATETLSSPPLISYIEADSPAERCGVLQIGDRVMAINGIPTEDSTFEEANQLLRDSSITSKVTLEIEFDVAESVIPSSG”, “not failed”; in that of “AGSMEDIPVEEAVLTGVATDNSEAKITVLGIPDSPGSASAVFRALADAEINIDTVLQNISSLEDNRTDITFTCPRADGPHAMELLRNLQAKNDWQNVLYDDQIGKVSLVGAGMKSHPGVTAEFCEALRDAGVNIELISTSEIRISVLIRESDVDVAARAIHEKFELGGETEAIVYAGTGR”, “failed”.
In the case of “AHHDEVLDIPKGVEVYEIEGPFFFGIANRFEEIMNTLGDHPDVRIIRMRHVPFMDSTGMHNLENLIKMSRKEGVSIVLSGVRKDVHEELATAGIVELLGEENVCADIQAALRQAQAIAQGA” it was “failed”; in that of “AIAAAPIESLLNEICESEDPIEELKSLRTAVLATPVSGLRPAVSGARLEIIFSLLNTNDKEQIEVCVEILSRVLQALEPVQLAQNYRTALQSGLNHPDDSVKVLTLTQIGRVAGHTEGVTQMLNNVEILHDVIQCISVERIAVAKEAIAALSKLSNTKAGLDALFRSDLLNKLKDVMLTSDIIRYRVYELIVEVSTVSPVSLGYCANSGLISQMLEELTGDDVLVRATAIEMVTNLAQSQHGRQYLAQQGIMDKISSVQKIFGAHNYLKLKTYLNEGSYYVTAVSAVTTEGAD”, “failed”.
As to “AIAAEAVLRVARRQLSQRGGSGAPILLRQMFEPVSCTFTYLLGDRESREAVLIDPVLETAPRDAQLIKELGLRLLYAVNTHCHADHITGSGLLRSLLPGCQSVISRLSGAQADLHIEDGDSIRFGRFALETRASPGHTPGCVTFVLNDHSMAFTGDALLIRGCGRTDFQQGCAKTLYHSVHEKIFTLPGDCLIYPAHDYHGFTVSTVEEERTLNPRLTLSCEEFVKIMGNLNLPKPQQIDFAVPANMRCGVQTPTA”, the protein production entry is “failed”.
Consider “AIAAVKAQVLYDFTAEPGNNELTVHEGETLTITNQNVGGGWVEAQNSRGNVGLVPVDYVEVNSASAQAPATQYIDARNQGNNNSTANTQGVNGNEAWTATTWSNSYPADNWNYTEQEPAGNNGSVYSFDEEWDDDSDDGKSTGGYGGSQAEDGGTMQRSGAHSTMKLSLNKFPGFSKTPNPEVYLLTKHITKGNDRLSVYPGEVGPVWLYPQTQLDCVVADPKKGSKMYGLKSYIEYQITPNTTNRPVNHRYKHFDWLYERLVEKFACALPVPGLPDKQVTGRFEEEFIKMRMERLQGWMSRMCRHPVISNSEVFQLFLNYRDEKEWKLGKRKAEKDETVGVKIFSTIDPELPELDPAQVEQKYEVYNQFTRSMDNSVKELLAVGNLHWKRCTGPLQKEYRQIGKAFQNMSSVFNTSGYPRESTLTEALTATGKTYEEIAEVIAAQPRKDLHFLLETNNEYKGLLGCFPDTIGVHKAAIDKVKEADHLVMTNKISQQDKHTMEKNLSTMSYALQAEMNHFHSNRIYDYNRLMQFYLEEQVKFYETIAEKLKKALGQYTTI”, for which the protein production result is reported as “failed”.
Take “AIAEPGSPAGAGAEAPAFYSERKLSRKQLKKLAKAEREYEEERRKELEAAQAVDTAQKRELARIESILRTHALRMEYVEPDGHCLFRALVRQLRPLIQSGLFDTYFPAADTETRSALLTWSTIPDEMEAVWLLRKTLASFIRRRGTEFFPFIVGELDPQGTLLDASDDPAERVAQYCARLEDGTLWGGQPELQAVALALRCRVFVFADPEILPNGMLVMGADDASTDTGAESVTALRVSFHKQFFSLGEHYHAVVPADDSRGDARDPRISAS”: the protein production entry is reported as “not failed”.
In the case of “AIAFKRKTAWFSDSVEKEVISFWVSEGGDISSWKTAGYLFSDDASSEDTKRIYGSEDYVKNRATVFHSSFLLACQPRQSVTSVPIGHYVLPPDFVQNEMKAIIGRFIWEKDEQVICEEQINPEVPKDILSGETEDHALRERSSQDDYQTVTSQSKVCSCCEMRQYPVNNMISGYVHIDQMRKYSGELKDFLPSLHGHDVSRSNDPTPPFHRKAV” it was “failed”.
With “AIAKETEQVSEAPHGLEGAWLDLTNRVRVSGDTVEACSAFSIGPPRCRWLLQATDRGVNCAALDHYVPHICGTHTETVYHIAHHRYIKRAVCEIPFFRFHKARIQVCTAKIACTEQVLPSADTDYPCLEPNDLIVGPSALNRAPRYTRAQDSTIEALILIVVGPDGTSDWRDGKLDDRPPYLTPAAIESLATRYPNMRHLLTNLPSVDRRRDGGLVRSHRAFFATDFAGDGTPSESPQKTITELLRVPPDWQLYDDAEGVVCISLAPIEGLDAIPSSVYFKSH”, the protein production result is reported as “failed”.
In the case of “AIAPVKKKRKAPGVAAAVAEDAGLKKCKIPSYCRSQPPARLISGEEDFSRKKCLAWFYEYAGPDEVVGPEGMEKFCEDIGVEPENIIMLVLAWKLEAESMGFFTKEEWLKGMTSLQCDCTEKLQSRFDFLRSQLNDISSFKNIYTYAFDFARDKDQRSLDIDTAKSMLALLLGRTWPLFSVFYQYLEQSKYRVMNKDQWYNVLEFSRTVHADLSNYDEDGAWPVLLDEFVEWQKNPSNIIARTVVKTMQTL” it was “failed”; in that of “AIASERLYYFVIVGRDDRVLYDLLYPASLSELDWRTSSELSSPAERGDFEPHHFIPSIQVLLQFVAYSALDHIEEKYWLTSARSLKHIFRFRDWSASVQLTPNAATRFVLVHGASDDASRNVRAFLHAVYEAYVPHVVCNPFQEEDAPITSKRFHEVAKNLAKRYFSG”, “failed”.
To “AIASNSLEEKKSYFSNRVNLLVENIGTSLRDLLRQGADSSDWNEYAGNLELHLSIENISRDLEELLTLSFEIEVLTLEGNLPQVMSETDGVEAAIQKRIAELNFALEQTGVFSGFSFLYDVNFQQIVEKATRALQKVSDYTPWVLDDGHNM” belongs “failed”.
